This is an account of results in patent US20180237536A1 (INNATE PHARMA, published 2018).

For test [1], the target named is T1, human CD73 expressed at the cell surface (human, UniProt P21589 27-549).
T1 sequence: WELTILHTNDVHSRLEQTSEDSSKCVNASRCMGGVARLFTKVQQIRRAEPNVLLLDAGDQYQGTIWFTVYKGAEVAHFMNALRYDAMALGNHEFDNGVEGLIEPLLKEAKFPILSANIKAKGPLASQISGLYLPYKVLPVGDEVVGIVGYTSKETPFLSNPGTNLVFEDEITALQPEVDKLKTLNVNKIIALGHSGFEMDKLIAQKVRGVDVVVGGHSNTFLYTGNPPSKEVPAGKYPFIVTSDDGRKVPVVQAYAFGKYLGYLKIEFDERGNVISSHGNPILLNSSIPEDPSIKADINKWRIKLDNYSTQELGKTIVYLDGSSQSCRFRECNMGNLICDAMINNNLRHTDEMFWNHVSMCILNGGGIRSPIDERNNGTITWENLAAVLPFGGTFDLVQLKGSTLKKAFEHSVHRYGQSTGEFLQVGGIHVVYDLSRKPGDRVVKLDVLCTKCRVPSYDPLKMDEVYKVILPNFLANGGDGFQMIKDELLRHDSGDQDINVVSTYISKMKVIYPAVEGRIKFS
The test is described as follows: cell-based or functional assay.

Test [2] deals with T2, cynomolgus CD73 expressed on recombinant host cells (cynomolgus).
T2 construct: whole, on cells; also called cynoCD73
As to the kind of experiment: flow cytometry titration on cynomolgus CD73-expressing recombinant host cells, PE secondary, median of fluorescence. For orientation: Flow cytometry measures light scatter and fluorescence of single cells or particles in a stream.

In test [3] the target is T1, human CD73 expressed at the cell surface. The test is described as follows: cell-based or functional assay. This is another data set of the same source.
Test [4] deals with T3, recombinant human CD73-His extracellular domain protein (soluble dimer) (human, UniProt P21589 27-547).
T3 sequence: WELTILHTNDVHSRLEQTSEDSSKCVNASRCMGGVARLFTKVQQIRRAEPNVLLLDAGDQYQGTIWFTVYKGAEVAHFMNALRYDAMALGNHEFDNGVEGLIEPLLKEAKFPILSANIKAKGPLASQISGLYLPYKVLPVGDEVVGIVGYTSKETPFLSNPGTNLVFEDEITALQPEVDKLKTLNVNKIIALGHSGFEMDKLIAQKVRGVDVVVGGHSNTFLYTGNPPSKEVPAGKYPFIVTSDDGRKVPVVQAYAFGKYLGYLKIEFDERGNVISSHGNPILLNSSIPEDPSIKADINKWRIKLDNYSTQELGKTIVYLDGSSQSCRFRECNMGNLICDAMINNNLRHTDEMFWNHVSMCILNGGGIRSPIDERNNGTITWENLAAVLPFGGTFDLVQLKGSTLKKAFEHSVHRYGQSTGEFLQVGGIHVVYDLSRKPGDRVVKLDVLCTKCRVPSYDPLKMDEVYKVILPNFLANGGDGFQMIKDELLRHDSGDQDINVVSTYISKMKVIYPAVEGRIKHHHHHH
As to the kind of experiment: cell-based or functional assay.

In test [5] the target is T1, human CD73 expressed at the cell surface. As to the kind of experiment: flow cytometry titration on human CD73-expressing recombinant host cells, PE secondary, median of fluorescence. The procedure: MDA-MB-231 cells are available from ATCC (reference HTB-26). 10⁵ cells resuspended in PBS/0.2% BSA/0.02% NaN3 (named “staining buffer”) are distributed into round bottom 96W-microplates. Dose-range of anti-CD73 antibodies was added to the plates and cells are incubated for 45 min at 4° C. Cells were washed three times in staining buffer by spinning plates at 400 g for 3 min at 4° C. PE-coupled goat anti-mouse or goat anti-human IgG Fc fragment secondary antibodies (Beckman Coulter) diluted in staining buffer were added to the cells and plates are incubated for 30 additional minutes at 4° C. Cells were washed three times as described above and analyzed on an Accury C6 flow cytometer equipped with an HTFC plate reader.
Median of fluorescence vs. antibodies concentration was plotted on graphs and EC50 is calculated using GraphPad Prism program.

In the next test the target is T4, human CD73 mutant 3 (human, UniProt P21589 27-549).
T4 construct: Expressed on transfected HEK293T cells
T4 chain: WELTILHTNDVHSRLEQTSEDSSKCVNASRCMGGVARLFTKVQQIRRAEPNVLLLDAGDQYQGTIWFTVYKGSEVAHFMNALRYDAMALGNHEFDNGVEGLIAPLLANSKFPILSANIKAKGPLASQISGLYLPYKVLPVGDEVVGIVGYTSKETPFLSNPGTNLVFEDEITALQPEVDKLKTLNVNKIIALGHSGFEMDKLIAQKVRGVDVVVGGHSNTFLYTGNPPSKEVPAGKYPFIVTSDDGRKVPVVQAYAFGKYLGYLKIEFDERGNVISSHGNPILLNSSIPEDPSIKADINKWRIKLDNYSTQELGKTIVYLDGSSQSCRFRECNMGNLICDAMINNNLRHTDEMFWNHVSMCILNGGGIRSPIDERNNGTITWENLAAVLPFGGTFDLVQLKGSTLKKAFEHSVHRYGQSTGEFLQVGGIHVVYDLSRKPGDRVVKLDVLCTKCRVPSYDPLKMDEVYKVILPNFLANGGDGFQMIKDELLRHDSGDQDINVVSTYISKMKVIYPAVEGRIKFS
As to the kind of experiment: flow cytometry on transfected HEK293T cells. The procedure: CD73 mutants are generated by PCR. The sequences amplified are run on agarose gel and purified using the Macherey Nagel PCR Clean-Up Gel Extraction kit (reference 740609). The purified PCR products generated for each mutant are then ligated into an expression vector, with the ClonTech InFusion system. The vectors containing the mutated sequences are prepared as Miniprep and sequenced. After sequencing, the vectors containing the mutated sequences are prepared as Midiprep using the Promega PureYield™ Plasmid Midiprep System. HEK293T cells are grown in DMEM medium (Invitrogen), transfected with vectors using Invitrogen's Lipofectamine 2000 and incubated at 37° C. in a CO2 incubator for 24 hours prior to testing for transgene expression
Anti-CD73 antibodies are tested for their binding to each mutant by flow cytometry. A first experiment is performed to determine antibodies that lose their binding to one or several mutants at one concentration. To confirm a loss of binding, titration of antibodies is done on antibodies for which binding seemed to be affected by the CD73 mutations (1-0.1-0.01-0.001 μg/ml). Antibodies 11E1, 8C7, 3C12 or 6E1 lost binding to mutant 3 of CD73, but not to any other mutant. […] Antibody 7G2 lost binding to mutants 5, 6 and 7 (but not mutants 2 or 3).

B1: antibody 11E1 (antibody, human IgG1, V domains shown)
VH: EIQLQQSGPELVKPGASVKVSCKASGYAFTSYNMYWVKQSHGKSLEWIGYIDPYNGGTSYNQKFKGKATLTVDKSSSTAYMHLNSLTSEDSAVYYCARGYGNYKAWFAYWGQGTLVTVSA
VL: DAVMTQTPKFLLVSAGDRVTITCKASQSVTNDVAWYQQKPGQSPKLLIYYASNRYTGVPDRFTGSGYGTDFTFTISTVQAEDLAVYFCQQDYSSLTFGAGTKLELK
notes: also called 1E11
In the case of B1, the “EC50 for neutralization of enzymatic activity of cellular CD73 (MDA-MB-231, free phosphate from AMP)” value (from here on “EC50 … (MDA-MB-231, free phosphate from AMP)”) in test [1] is 0.195 µg/mL. Moreover, the “EC50 (read off the curve)” value in test [2] is roughly 0.5 µg/mL. Also, in test [3], the “EC50 for neutralization of cellular CD73 enzymatic activity (mean over MDA-MB-231, H292, A375)” value (“EC50 … (mean over MDA-MB-231, H292, A375)” below) turned out to be 0.1 µg/mL; the “EC70 for neutralization of cellular CD73 enzymatic activity (mean over MDA-MB-231, H292, A375)” value (“EC70 … (mean over MDA-MB-231, H292, A375)” for short) was 0.15 µg/mL; the “EC100 for neutralization of cellular CD73 enzymatic activity (mean over MDA-MB-231, H292, A375)” value (from here on “EC100 … (mean over MDA-MB-231, H292, A375)”) is 0.52 µg/mL. The “EC50 for CD73 blockade (enzymatic activity of soluble recombinant CD73-his, Cell Titer Glo)” value (shortened to “EC50 for CD73 blockade”) in test [4] turned out to be 0.41 µg/mL. The “EC50 (read off the curve)” value in test [5] is roughly 0.5 µg/mL.

B2: antibody 8C7 (antibody, human IgG1, V domains shown)
VH: EVQLQQSGPELVKPGASVKVSCKASGYAFASYNMNWVKQSHGKSLDWIGYIDPYNGGSSYNLTFKGKATLTVDKSSTTAYMHLNSLTSEDSAVYYCARGYGNYKAWFAYWGQGTLVTVSA
VL: SIVMTPTPKFLLVSAGDRVTITCKASQSVSNDVAWYQQKPGQSPKLLIYYASTRYTGVPDRFTGSGYGTDFTFTISTVQAEDLAVYFCQQDYSSLTFGAGTKLELKR
For the molecule B2, the “EC50 … (MDA-MB-231, free phosphate from AMP)” value in test [1] amounted to 0.319 µg/mL. In test [3], the “EC50 … (mean over MDA-MB-231, H292, A375)” value came out at 0.21 µg/mL; the “EC70 … (mean over MDA-MB-231, H292, A375)” value was 0.46 µg/mL; the “EC100 … (mean over MDA-MB-231, H292, A375)” value was 0.72 µg/mL. Further, the “EC50 for CD73 blockade” value in test [4] worked out at 1.29 µg/mL. The binding result in the test with human CD73 mutant 3 is on record as “no binding (tested: 1-0.1-0.01-0.001 µg/ml)”.

B3: antibody 3C12 (antibody, human IgG1, V domains shown)
VH: QIQLQQSGPELVKPGASVKVSCKASGYAFASYNMNWVKQSHGKSLDWIGYIDPYNGGSSYNLTFKGKATLTVDKSSTTAYMHLNSLTSEDSAVYYCARGYGNYKAWFAYWGQGTLVTVSA
VL: DVVMTQTPKFLLVSAGDRVTITCKASQSVSNDVAWYQQKPGQSPKLLIYYASTRYTGVPDRFTGSGYGTDFTFTISTVQAEDLAVYFCQQDYSSLTFGAGTKLELKR
With B3, the “EC50 … (MDA-MB-231, free phosphate from AMP)” value in test [1] is 0.21 µg/mL. For the same molecule, in test [3], the “EC50 … (mean over MDA-MB-231, H292, A375)” value worked out at 0.14 µg/mL; the “EC70 … (mean over MDA-MB-231, H292, A375)” value stood at 0.18 µg/mL; the “EC100 … (mean over MDA-MB-231, H292, A375)” value stood at 0.3 µg/mL. In test [4], the “EC50 for CD73 blockade” value turned out to be 0.41 µg/mL.

B4: antibody 6E1 (antibody, human IgG1, V domains shown)
VH: EFQLQQSGPELVKPGASVKVSCKASGYAFTSYNMYWVKQSHGKRLEWIGYIDPYNGGSSYNQKFKGKATLTVDKSSSTAYMHLNNLTSEDSAVYYCARGYNNYKAWFAYWGQGTLVTVSA
VL: SIVMTQTPKFLLVSAGDRVTITCKASQSVTNDVAWYQQKPGQSPKLLIYYASNRYTGVPDRFTGSGYGTDFTFTISTMQAEDLAVYFCQQDYSSLTFGAGTKLELK
For the molecule B4, the “EC50 … (MDA-MB-231, free phosphate from AMP)” value in test [1] was determined as 0.209 µg/mL. Also, in test [3], the “EC50 … (mean over MDA-MB-231, H292, A375)” value worked out at 0.13 µg/mL; the “EC70 … (mean over MDA-MB-231, H292, A375)” value was found to be 0.19 µg/mL; the “EC100 … (mean over MDA-MB-231, H292, A375)” value was found to be 0.68 µg/mL. The “EC50 for CD73 blockade” value in test [4] is 0.33 µg/mL. Also, the “EC50 (read off the curve)” value in test [5] is roughly 0.5 µg/mL.

Usually EC50 (read off the curve) stands for the concentration at which the effect is half-maximal.
